Here are results for one substance from patent publication US6054572.

The assay has as its target human fibronectin purified from a human plasma fraction on Gelatin Sepharose (human) (UniProt P02751).

“D1-D4 (709-886) polypeptide of the fibronectin binding protein of Staphylococcus aureus J2385, expressed from pBROC 520 in E. coli BL21 (DE3)” displayed a % Adherence Inhibition of S. aureus 8325.4 to fibronectin-coated PMMA coverslips (at 100 µg/ml D1-D4 (709-886)) of 97.5% and a % Adherence Inhibition of S. aureus J2385 to fibronectin-coated PMMA coverslips (at 100 µg/ml D1-D4 (709-886)) of 78.4%.
